Values quoted from earlier work, collected in publication PMC6194691.

Biological target: transferrin receptor (Rattus norvegicus) (UniProt Q99376)
Chain of UniProt Q99376 (Q99376 whole entry): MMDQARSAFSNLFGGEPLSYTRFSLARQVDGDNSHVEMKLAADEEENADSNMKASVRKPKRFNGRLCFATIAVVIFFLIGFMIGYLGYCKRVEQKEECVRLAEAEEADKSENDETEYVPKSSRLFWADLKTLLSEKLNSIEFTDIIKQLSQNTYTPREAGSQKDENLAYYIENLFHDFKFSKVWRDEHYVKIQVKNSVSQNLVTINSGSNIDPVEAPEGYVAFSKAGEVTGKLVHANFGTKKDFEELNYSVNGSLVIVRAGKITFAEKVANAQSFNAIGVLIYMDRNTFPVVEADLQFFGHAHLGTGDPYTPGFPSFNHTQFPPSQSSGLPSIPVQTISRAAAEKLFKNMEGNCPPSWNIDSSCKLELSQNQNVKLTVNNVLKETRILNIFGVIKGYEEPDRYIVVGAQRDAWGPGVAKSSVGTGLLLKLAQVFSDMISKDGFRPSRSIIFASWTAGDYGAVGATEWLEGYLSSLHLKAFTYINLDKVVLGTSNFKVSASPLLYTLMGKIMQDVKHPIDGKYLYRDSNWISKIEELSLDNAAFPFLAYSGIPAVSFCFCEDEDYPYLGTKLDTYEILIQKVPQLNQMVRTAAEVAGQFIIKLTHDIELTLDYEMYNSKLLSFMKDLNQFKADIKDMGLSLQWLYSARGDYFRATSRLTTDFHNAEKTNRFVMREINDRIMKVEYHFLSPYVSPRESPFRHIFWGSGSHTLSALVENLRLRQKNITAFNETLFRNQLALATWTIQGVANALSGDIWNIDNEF

Kd: < 30 nM
Substance: apo-transferrin (from UniProt P12346)
